Test results from the supplement of paper PMC9112550, “Optimization of the antimicrobial peptide Bac7 by deep mutational scanning” (BMC Biology, 2022).

Test system: Escherichia coli TOP10
Assay: shrunken log2 fold change of peptide-encoding DNA abundance (4.5 h post-induction vs induction); higher = less antimicrobial activity (less host growth inhibition)
Conditions: time post-induction: 4.5 h; library: site-saturation at positions 5, 18, 19, 20
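Also: peptides expressed intracellularly from a pBAD plasmid library in pooled LB shake-flask culture, induced with 0.3% L-arabinose, DNA abundance read by NGS, three biological replicates, DESeq2 with apeglm shrinkage.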

| Sequence | shrunken log2 fold change |
| --- | --- |
| RRIRWRPPRLPRPRPRPSVCPRP | 0.104 |
| RRIRCRPPRLPRPRPRPFCPPRP | -0.225 |
| RRIRYRPPRLPRPRPRPIKWPRP | 0.0101 |
| RRIRWRPPRLPRPRPRPAETPRP | 0.0775 |
| RRIRYRPPRLPRPRPRPIVHPRP | -2.04 |
| RRIRWRPPRLPRPRPRPGSVPRP | 0.306 |
| RRIRFRPPRLPRPRPRPPLSPRP | 0.133 |
| RRIRWRPPRLPRPRPRPYCKPRP | -0.864 |
| RRIRMRPPRLPRPRPRPIRAPRP | 0.3 |
| RRIRERPPRLPRPRPRPHFVPRP | -0.0987 |
| RRIRQRPPRLPRPRPRPVGGPRP | 2.52 |
| RRIRNRPPRLPRPRPRPKLWPRP | -0.0235 |
| RRIRYRPPRLPRPRPRPNCRPRP | -0.134 |
| RRIRIRPPRLPRPRPRPRQAPRP | 0.0194 |
| RRIRHRPPRLPRPRPRPWTNPRP | -0.101 |
| RRIRQRPPRLPRPRPRPWWGPRP | 0.0786 |
| RRIRWRPPRLPRPRPRPTGEPRP | 0.306 |
| RRIRFRPPRLPRPRPRPDFIPRP | -0.395 |
| RRIRLRPPRLPRPRPRPLFAPRP | 0.233 |
| RRIRTRPPRLPRPRPRPKIRPRP | 0.0372 |
| RRIRGRPPRLPRPRPRPPRNPRP | 1.1 |
| RRIRTRPPRLPRPRPRPTSGPRP | 0.0562 |
| RRIRNRPPRLPRPRPRPEMRPRP | -0.0181 |
| RRIRMRPPRLPRPRPRPGWNPRP | 0.226 |
| RRIRYRPPRLPRPRPRPPTCPRP | -0.163 |

| Sequence | shrunken log2 fold change |
| --- | --- |
| RRIRKRPPRLPRPRPRPQPEPRP | 0.7 |
| RRIRIRPPRLPRPRPRPILWPRP | -0.238 |
| RRIRQRPPRLPRPRPRPRMMPRP | -0.161 |
| RRIRLRPPRLPRPRPRPNQKPRP | -0.0744 |
| RRIRFRPPRLPRPRPRPHKQPRP | -0.0759 |
| RRIRQRPPRLPRPRPRPMMFPRP | -0.3 |
| RRIRQRPPRLPRPRPRPLLWPRP | 0.091 |
| RRIRTRPPRLPRPRPRPNAIPRP | -0.797 |
| RRIRQRPPRLPRPRPRPYRKPRP | -0.0156 |
| RRIRVRPPRLPRPRPRPRGPPRP | 0.946 |
| RRIRSRPPRLPRPRPRPQTNPRP | -0.032 |
| RRIRCRPPRLPRPRPRPEMPPRP | 0.65 |
| RRIRERPPRLPRPRPRPTMHPRP | -0.229 |
| RRIRARPPRLPRPRPRPADHPRP | 0.0196 |
| RRIRGRPPRLPRPRPRPAGYPRP | 0.164 |
| RRIRDRPPRLPRPRPRPNNMPRP | -0.0368 |
| RRIRGRPPRLPRPRPRPCIYPRP | 0.0369 |
| RRIRYRPPRLPRPRPRPQRWPRP | -0.13 |
| RRIRVRPPRLPRPRPRPHHLPRP | -0.24 |
| RRIRQRPPRLPRPRPRPEELPRP | -0.0362 |
| RRIRLRPPRLPRPRPRPSYWPRP | -0.651 |
| RRIRRRPPRLPRPRPRPCNWPRP | -0.0134 |
| RRIRCRPPRLPRPRPRPGEQPRP | 0.262 |
| RRIRFRPPRLPRPRPRPKPNPRP | 0.545 |
| RRIRPRPPRLPRPRPRPWFRPRP | -0.0017 |

| Sequence | shrunken log2 fold change |
| --- | --- |
| RRIRNRPPRLPRPRPRPKTSPRP | -0.0653 |
| RRIRPRPPRLPRPRPRPRWWPRP | 0.0553 |
| RRIRHRPPRLPRPRPRPYQQPRP | -0.032 |
| RRIRIRPPRLPRPRPRPLYFPRP | -0.961 |
| RRIRARPPRLPRPRPRPGLLPRP | 0.547 |
| RRIRTRPPRLPRPRPRPPNEPRP | 0.207 |
| RRIRMRPPRLPRPRPRPICDPRP | 0.36 |
| RRIRARPPRLPRPRPRPFIVPRP | -0.286 |
| RRIRKRPPRLPRPRPRPPCHPRP | 0.176 |
| RRIRSRPPRLPRPRPRPFVEPRP | -0.123 |
| RRIRTRPPRLPRPRPRPYVYPRP | -1.18 |
| RRIRQRPPRLPRPRPRPVDTPRP | -0.183 |
| RRIRIRPPRLPRPRPRPYYFPRP | -1.16 |
| RRIRVRPPRLPRPRPRPNARPRP | 0.102 |
| RRIRQRPPRLPRPRPRPVLPPRP | 0.0127 |
| RRIRGRPPRLPRPRPRPQSLPRP | 0.251 |
| RRIRQRPPRLPRPRPRPEVSPRP | 0.116 |
| RRIRYRPPRLPRPRPRPQSYPRP | -0.0246 |
| RRIRLRPPRLPRPRPRPVGFPRP | 0.212 |
| RRIRCRPPRLPRPRPRPTELPRP | -0.106 |
| RRIRVRPPRLPRPRPRPFQPPRP | -0.152 |
| RRIRWRPPRLPRPRPRPVSSPRP | 0.117 |
| RRIRYRPPRLPRPRPRPFCCPRP | -0.509 |
| RRIRERPPRLPRPRPRPGSKPRP | -0.129 |
| RRIRNRPPRLPRPRPRPACYPRP | -0.265 |

| Sequence | shrunken log2 fold change |
| --- | --- |
| RRIRRRPPRLPRPRPRPISPPRP | -0.00237 |
| RRIRKRPPRLPRPRPRPFKMPRP | -0.231 |
| RRIRERPPRLPRPRPRPYQWPRP | 0.0039 |
| RRIRYRPPRLPRPRPRPKFLPRP | -0.139 |
| RRIRTRPPRLPRPRPRPIKTPRP | -0.0452 |
| RRIRWRPPRLPRPRPRPDPAPRP | 0.663 |
| RRIRLRPPRLPRPRPRPVAVPRP | 0.0513 |
| RRIRIRPPRLPRPRPRPPTEPRP | -0.323 |
| RRIRHRPPRLPRPRPRPKSMPRP | -0.503 |
| RRIRARPPRLPRPRPRPTQHPRP | 0.698 |
| RRIRNRPPRLPRPRPRPLGYPRP | -0.165 |
| RRIRCRPPRLPRPRPRPKGQPRP | 0.0213 |
| RRIRLRPPRLPRPRPRPFGNPRP | -0.498 |
| RRIRCRPPRLPRPRPRPHFPPRP | -0.0893 |
| RRIRERPPRLPRPRPRPPEHPRP | 0.114 |
| RRIRKRPPRLPRPRPRPGEWPRP | -0.0202 |
| RRIRNRPPRLPRPRPRPNFKPRP | -0.0826 |
| RRIRERPPRLPRPRPRPTPRPRP | 0.669 |
| RRIRSRPPRLPRPRPRPWTPPRP | -0.154 |
| RRIRVRPPRLPRPRPRPWPAPRP | -0.0676 |
| RRIRVRPPRLPRPRPRPTFYPRP | -0.145 |
| RRIRCRPPRLPRPRPRPLAQPRP | 0.103 |
| RRIRARPPRLPRPRPRPTSDPRP | 0.954 |
| RRIRWRPPRLPRPRPRPGTEPRP | 0.403 |
| RRIRLRPPRLPRPRPRPNIKPRP | -0.321 |

| Sequence | shrunken log2 fold change |
| --- | --- |
| RRIRFRPPRLPRPRPRPHIVPRP | -0.0839 |
| RRIRSRPPRLPRPRPRPSWKPRP | -0.0985 |
| RRIRPRPPRLPRPRPRPGLQPRP | -0.0954 |
| RRIRRRPPRLPRPRPRPRPMPRP | 0.76 |
| RRIRVRPPRLPRPRPRPLPAPRP | 0.449 |
| RRIRCRPPRLPRPRPRPVCRPRP | -0.0309 |
| RRIRRRPPRLPRPRPRPMVPPRP | 0.135 |
| RRIRPRPPRLPRPRPRPTKCPRP | -0.0849 |
| RRIRFRPPRLPRPRPRPEPHPRP | 0.258 |
| RRIRLRPPRLPRPRPRPYHPPRP | -0.00992 |
| RRIRIRPPRLPRPRPRPEAQPRP | 0.0863 |
| RRIRCRPPRLPRPRPRPHQRPRP | -0.422 |
| RRIRSRPPRLPRPRPRPVCNPRP | 0.413 |
| RRIRGRPPRLPRPRPRPIGVPRP | -0.0542 |
| RRIRERPPRLPRPRPRPLHGPRP | -0.212 |
| RRIRDRPPRLPRPRPRPGQIPRP | 0.0221 |
| RRIRWRPPRLPRPRPRPVHDPRP | 0.141 |
| RRIRYRPPRLPRPRPRPGKGPRP | -0.0232 |
| RRIRHRPPRLPRPRPRPDTNPRP | 0.102 |
| RRIRGRPPRLPRPRPRPNHEPRP | 0.0434 |
| RRIRFRPPRLPRPRPRPNVHPRP | -0.339 |
| RRIRCRPPRLPRPRPRPWAEPRP | -0.136 |
| RRIRWRPPRLPRPRPRPTCTPRP | 0.441 |
| RRIRRRPPRLPRPRPRPLWPPRP | 0.484 |
| RRIRNRPPRLPRPRPRPTVVPRP | 0.229 |
